{
  "source": "patent US5914109",
  "key": {"[1]": {"molecular_target": "20-mer V3 peptide of HIVMN (American Bio-Technologies) (HIV-1 strain MN)", "assay": "competition ELISA in solution at equilibrium (Friguet method)"}, "[2]": {"molecular_target": "20-mer V3 peptide of HIVMN (American Bio-Technologies) (HIV-1 strain MN)", "assay": "Friguet ELISA method, V3 MN peptide"}, "[3]": {"molecular_target": "gp120 of HIVMN (HIV-1 strain MN) (UniProt P05877)"}, "[4]": {"molecular_target": "22-mer V3 peptide of HXB2 (HIV-1 HXB2 (IIIB))", "assay": "competition ELISA in solution (Friguet method); mAb after the fourth cloning"}, "[5]": {"molecular_target": "recombinant gp120 protein of HIVSF2 (produced in CHO cells) (HIV-1 isolate SF-2) (UniProt P03378)", "assay": "Friguet method; reference: V3SF-2 peptide"}, "[6]": {"molecular_target": "20-mer V3 peptide of HIVSF2 (HIV-1 isolate SF-2)", "assay": "Friguet method, ligand in solution at equilibrium; V3 peptide of SF-2"}, "[7]": {"molecular_target": "22-mer V3 peptide of HXB2 (HIV-1 HXB2 (IIIB))", "assay": "Friguet method, ligand in solution at equilibrium; V3 peptide of HXB2"}, "[8]": {"molecular_target": "V3-NY5 peptide (HIV-1 isolate NY5)", "assay": "ELISA on V3 peptide coated plates, mAb at 10 µg/ml"}, "[9]": {"molecular_target": "20-mer V3 peptide of HIVSF2 (HIV-1 isolate SF-2)", "assay": "ELISA on V3 peptide coated plates, mAb at 10 µg/ml"}, "[10]": {"molecular_target": "V3-WM52 peptide (HIV-1 isolate WM52)", "assay": "ELISA on V3 peptide coated plates, mAb at 10 µg/ml"}, "[11]": {"molecular_target": "V3-RF peptide (HIV-1 isolate RF)", "assay": "ELISA on V3 peptide coated plates, mAb at 10 µg/ml"}, "[12]": {"molecular_target": "V3-CDC4 peptide (HIV-1 isolate CDC4)", "assay": "ELISA on V3 peptide coated plates, mAb at 10 µg/ml"}, "[13]": {"molecular_target": "V3-SC peptide (HIV-1 isolate SC)", "assay": "ELISA on V3 peptide coated plates, mAb at 10 µg/ml"}, "[14]": {"molecular_target": "23-mer peptide of the gp120 V3 loop of the MN strain of HIV-1 (HIV-1 strain MN)", "assay": "ELISA on V3 peptide coated plates, mAb at 10 µg/ml"}, "[15]": {"molecular_target": "22-mer V3 peptide of HXB2 (HIV-1 HXB2 (IIIB))", "assay": "ELISA on V3 peptide coated plates, mAb at 10 µg/ml"}, "[16]": {"molecular_target": "recombinant gp120IIIB (baculovirus, Repligen) (HIV-1 isolate IIIB) (UniProt P04578)", "assay": "Friguet method, ligand in solution at equilibrium; rgp120 IIIB (row HXB2)"}, "[17]": {"molecular_target": "gp120 of HTLV-IIIB (HIV-1 isolate IIIB)"}, "[18]": {"molecular_target": "gp120 of HIVMN (HIV-1 strain MN) (UniProt P05877)", "remark": "listed apart in the source"}, "[19]": {"molecular_target": "20-mer V3 peptide of HIVSF2 (HIV-1 isolate SF-2)", "assay": "competition ELISA in solution at equilibrium (Friguet method)"}, "[20]": {"molecular_target": "22-mer V3 peptide of HXB2 (HIV-1 HXB2 (IIIB))", "assay": "competition ELISA in solution at equilibrium (Friguet method)"}, "[21]": {"molecular_target": "recombinant gp120IIIB (baculovirus, Repligen) (HIV-1 isolate IIIB) (UniProt P04578)", "assay": "Friguet method; reference: V3IIIB peptide"}, "[22]": {"molecular_target": "recombinant gp120 protein of HIVSF2 (produced in CHO cells) (HIV-1 isolate SF-2) (UniProt P03378)", "assay": "Friguet method, ligand in solution at equilibrium; rgp120 SF-2"}, "[23]": {"molecular_target": "22-mer V3 peptide of HXB2 (HIV-1 HXB2 (IIIB))", "assay": "competition ELISA in solution (Friguet method); mAb after the second cloning"}, "[24]": {"molecular_target": "20-mer V3 peptide of HIVMN (American Bio-Technologies) (HIV-1 strain MN)", "assay": "Friguet method, ligand in solution at equilibrium; V3 peptide of MN"}, "[25]": {"molecular_target": "gp120 of HTLV-IIIB (HIV-1 isolate IIIB)", "remark": "listed apart in the source"}, "[26]": {"molecular_target": "20-mer V3 peptide of HIVSF2 (HIV-1 isolate SF-2)", "assay": "competition ELISA in solution (Friguet method); reference: the MN peptide"}, "[27]": {"molecular_target": "gp120 of HIV-1 isolate RF (HIV-1 isolate RF) (UniProt P04579)"}, "[28]": {"molecular_target": "gp120 of HIV-1 isolate WMJ-2 (HIV-1 isolate WMJ-2)"}, "[29]": {"molecular_target": "gp120 of HIV-1 isolate AL-1 (HIV-1 isolate AL-1)"}, "[30]": {"molecular_target": "gp120 of HIV-1 isolate SF-2 (virus) (HIV-1 isolate SF-2) (UniProt P03378)"}, "[31]": {"molecular_target": "gp120 of HTLV-IIIB (HIV-1 isolate IIIB)", "remark": "listed apart in the source"}, "[32]": {"molecular_target": "gp120 of HIVMN (HIV-1 strain MN) (UniProt P05877)", "remark": "listed apart in the source"}},
  "data": [
    {"substance": "human mAb 412-D (antibody)", "values": [
      {"measurement": "Kd", "setting": "[1]", "value": 9.1, "unit": "µM"},
      {"measurement": "Kd", "setting": "[2]", "value": 9.1, "unit": "µM"},
      {"measurement": "50% neutralization, CEM-SS syncytium-forming assay, IgG concentration", "setting": "[3]", "value": 4.69, "unit": "µg/mL"},
      {"measurement": "90% neutralization, CEM-SS syncytium-forming assay, IgG concentration", "setting": "[3]", "value": "> 10", "unit": "µg/mL"}
    ]},
    {"substance": "human mAb 447-D (antibody)", "values": [
      {"measurement": "Kd", "setting": "[4]", "value": 16, "unit": "µM"},
      {"measurement": "fold stronger binding than to the V3SF-2 peptide", "setting": "[5]", "value": 90, "unit": "fold"},
      {"measurement": "Kd", "setting": "[6]", "value": 0.9, "unit": "µM"},
      {"measurement": "Kd", "setting": "[7]", "value": 24, "unit": "µM"},
      {"measurement": "minimum antigen concentration giving positive results (µg/ml of V3 peptide used to coat)", "setting": "[8]", "value": 0.1},
      {"measurement": "minimum antigen concentration giving positive results (µg/ml of V3 peptide used to coat)", "setting": "[9]", "value": 0.01},
      {"measurement": "minimum antigen concentration giving positive results (µg/ml of V3 peptide used to coat)", "setting": "[10]", "value": 0.2},
      {"measurement": "minimum antigen concentration giving positive results (µg/ml of V3 peptide used to coat)", "setting": "[11]", "value": 0.4},
      {"measurement": "minimum antigen concentration giving positive results (µg/ml of V3 peptide used to coat)", "setting": "[12]", "value": 0.1},
      {"measurement": "minimum antigen concentration giving positive results (µg/ml of V3 peptide used to coat)", "setting": "[13]", "value": 0.01},
      {"measurement": "minimum antigen concentration giving positive results (µg/ml of V3 peptide used to coat)", "setting": "[14]", "value": 0.01},
      {"measurement": "minimum antigen concentration giving positive results (µg/ml of V3 peptide used to coat)", "setting": "[15]", "value": 0.2},
      {"measurement": "Kd", "setting": "[16]", "value": 3.9, "unit": "µM"},
      {"measurement": "neutralization dose 50%, according to Nara et al.", "setting": "[17]", "value": 1.8, "unit": "µg/mL"},
      {"measurement": "percent neutralization at the maximum concentration of 10 µg/ml", "setting": "[17]", "value": 71, "unit": "%"},
      {"measurement": "neutralization dose 50%, according to Nara et al.", "setting": "[18]", "value": 0.052, "unit": "µg/mL"},
      {"measurement": "neutralization dose 90%, according to Nara et al.", "setting": "[18]", "value": 0.9, "unit": "µg/mL"},
      {"measurement": "Kd", "setting": "[19]", "value": 0.9, "unit": "µM"},
      {"measurement": "Kd", "setting": "[1]", "value": 0.56, "unit": "µM"},
      {"measurement": "Kd", "setting": "[20]", "value": 24, "unit": "µM"},
      {"measurement": "fold stronger binding than to the V3IIIB peptide", "setting": "[21]", "value": 6, "unit": "fold"},
      {"measurement": "Kd", "setting": "[2]", "value": 0.56, "unit": "µM"},
      {"measurement": "Kd", "setting": "[22]", "value": 0.01, "unit": "µM"},
      {"measurement": "Kd", "setting": "[23]", "value": 64, "unit": "µM"},
      {"measurement": "Kd", "setting": "[24]", "value": 0.56, "unit": "µM"},
      {"measurement": "50% neutralization, CEM-SS syncytium-forming assay, IgG concentration", "setting": "[25]", "value": 1.8, "unit": "µg/mL"},
      {"measurement": "90% neutralization, CEM-SS syncytium-forming assay, IgG concentration", "setting": "[25]", "value": "> 10", "unit": "µg/mL"},
      {"measurement": "50% neutralization, CEM-SS syncytium-forming assay, IgG concentration", "setting": "[3]", "value": 0.05, "unit": "µg/mL"},
      {"measurement": "90% neutralization, CEM-SS syncytium-forming assay, IgG concentration", "setting": "[3]", "value": 0.92, "unit": "µg/mL"}
    ]},
    {"substance": "human mAb 537-D (antibody)", "values": [
      {"measurement": "fold difference of Kd between the two V3 peptides (MN and SF-2)", "setting": "[26]", "value": 7, "unit": "fold"},
      {"measurement": "minimum antigen concentration giving positive results (µg/ml of V3 peptide used to coat)", "setting": "[8]", "value": 0.8},
      {"measurement": "minimum antigen concentration giving positive results (µg/ml of V3 peptide used to coat)", "setting": "[9]", "value": 1},
      {"measurement": "minimum antigen concentration giving positive results (µg/ml of V3 peptide used to coat)", "setting": "[10]", "value": 2},
      {"measurement": "minimum antigen concentration giving positive results (µg/ml of V3 peptide used to coat)", "setting": "[12]", "value": 1},
      {"measurement": "minimum antigen concentration giving positive results (µg/ml of V3 peptide used to coat)", "setting": "[13]", "value": 1},
      {"measurement": "minimum antigen concentration giving positive results (µg/ml of V3 peptide used to coat)", "setting": "[14]", "value": 0.6},
      {"measurement": "Kd", "setting": "[19]", "value": 8.5, "unit": "µM"},
      {"measurement": "Kd", "setting": "[1]", "value": 1.3, "unit": "µM"},
      {"measurement": "Kd", "setting": "[20]", "value": "> 100", "unit": "µM"},
      {"measurement": "Kd", "setting": "[2]", "value": 1.3, "unit": "µM"},
      {"measurement": "neutralization endpoint, MT-4 cell killing assay", "setting": "[27]", "value": "> 50", "unit": "µg/mL"},
      {"measurement": "neutralization endpoint, MT-4 cell killing assay", "setting": "[28]", "value": "> 50", "unit": "µg/mL"},
      {"measurement": "neutralization endpoint, MT-4 cell killing assay", "setting": "[29]", "value": 3.13, "unit": "µg/mL"},
      {"measurement": "neutralization endpoint, MT-4 cell killing assay", "setting": "[30]", "value": "> 5", "unit": "µg/mL"},
      {"measurement": "neutralization endpoint, MT-4 cell killing assay", "setting": "[31]", "value": "> 50", "unit": "µg/mL"},
      {"measurement": "neutralization endpoint, MT-4 cell killing assay", "setting": "[32]", "value": 6.25, "unit": "µg/mL"},
      {"measurement": "50% neutralization, CEM-SS syncytium-forming assay, IgG concentration", "setting": "[3]", "value": 2.69, "unit": "µg/mL"},
      {"measurement": "90% neutralization, CEM-SS syncytium-forming assay, IgG concentration", "setting": "[3]", "value": "> 10", "unit": "µg/mL"}
    ]}
  ]
}
